The target of this assay is MAP-PrP, multiple antigen peptide presenting amino acids 144-153 of human prion protein (human). Nature of the assay: ELISA (Fig. 9). On the technique in general: An ELISA detects its analyte on a solid surface through an enzyme-linked reagent.

B1: F2 scFv (scFv)
scFv: VQLLESGGGLVQPGGSLRLSCAASGFTFSGYWMHWVRQAPGKGLEWVSEISGSGDSTHYGDSVKGRFTISRDNSKNTLYLQMNSLRAEDTAVYYCARGRNGSLDYWGQGTLVTVSSGSAGGGGSGGGGSGGGGSDIVLTQPPSASGTPGQRVTISCSGTSSNIGADYDVHWYQQLPGKAPKLLIYDNNKRPSGVSDRFSGSKSGTSASLAISGLRSEDEADYYCAAWDSSLSSVVFGGGTQLTV
notes: also called TAR1; scFv F2
With B1, the binding result is “no binding”.

The values above are taken from patent CN101228187A (UNIV RAMOT, dated 2008).
